Molecular target: the molecule itself
Experiment: non-reducing SDS-PAGE and Western blot

B1: MLKL (natural protein, mouse (endogenous in NIH3T3), UniProt Q9D2Y4 1-472, looked up)
chain: MDKLGQIIKLGQLIYEQCEKMKYCRKQCQRLGNRVHGLLQPLQRLQAQGKKNLPDDITAALGRFDEVLKEANQQIEKFSKKSHIWKFVSVGNDKILFHEVNEKLRDVWEELLLLLQVYHWNTVSDVSQPASWQQEDRQDAEEDGNENMKVILMQLQISVEEINKTLKQCSLKPTQEIPQDLQIKEIPKEHLGPPWTKLKTSKMSTIYRGEYHRSPVTIKVFNNPQAESVGIVRFTFNDEIKTMKKFDSPNILRIFGICIDQTVKPPEFSIVMEYCELGTLRELLDREKDLTMSVRSLLVLRAARGLYRLHHSETLHRNISSSSFLVAGGYQVKLAGFELSKTQNSISRTAKSTKAERSSSTIYVSPERLKNPFCLYDIKAEIYSFGIVLWEIATGKIPFEGCDSKKIRELVAEDKKQEPVGQDCPELLREIINECRAHEPSQRPSVDGRSLSGRERILERLSAVEESTDKKV
notes: also called pseudokinase MLKL; source: endogenous, NIH3T3 cell and primary MEF lysates
  stoichiometry N: 3

From paper PMC5579359, “Sensing of viral and endogenous RNA by ZBP1/DAI induces necroptosis” (The EMBO Journal, 2017)
